Laboratory results published in US11427805B2, “Methods of producing human foregut endoderm cells expressing PDX1 from human definitive endoderm” (ViaCyte, Inc., priority 2005, dated 2022).

Tests used:
Type in all cases: cell-based, human
[1] = test system: PDX1 gene expression; experiment: Q-PCR of PDX1 gene expression in hESC-derived definitive endoderm cultures; conditions: for PDX1 induction over RA alone: added to 1 μM RA on day four, ninety six hours (FIG. 37A)
Procedure: (§1) Human embryonic stem cells were cultured with or without activins for four days. On day four, 1 μM RA and 50 ng/ml FGF-10 were added to the cell culture. Forty-eight hours after the RA/FGF-10 addition, the expression of the PDX1 marker gene and other marker genes not specific to foregut endoderm were quantitated by Q-PCR.
(§2) As in the previous Example, hESCs were cultured with or without activins for four days. On day four, the cells were treated with one of the following: 1 μM RA alone; 1 μM RA in combination with either FGF-4 or FGF-10; or 1 μM RA in combination with both FGF-4 and FGF-10. The expression of PDX1, SOX7 and NFM were quantitated by Q-PCR ninety six hours after RA or RA/FGF.
Human embryonic stem cells were cultured with or without activins for four days. On day four, FGF-10 at 50 ng/ml was added to the culture in combination with RA at 0.04 μM, 0.2 μM or 1.0 μM. The expression of the PDX1 marker gene as well as other markers not specific for foregut endoderm were quantitated by Q-PCR.
Human embryonic stem cells were induced to differentiate to definitive endoderm by treatment of undifferentiated hES cells grown on mouse embryonic fibroblast feeders with high dose activin A (100-200 ng/ml in 0.5-2% FBS/DMEM/F12) for 4 days. The no activin A control received 0.5-2% FBS/DMEM/F12 with no added activin A. At four days, cultures received either no activin A in 2% FBS (none), and in 2% serum replacement (SR), or 50 ng/ml activin A together with 2 μM RA and 50 ng/ml FGF-10 in 2% FBS/DMEM/F12 (none, +FBS, +B27) and similarly in 2% Serum replacement (SR). B27 supplement, (Gibco/BRL), was added as a 1/50 dilution directly into 2% FBS/DMEM/F12 (+B27). Duplicate cell samples where taken for each point, and total RNA was isolated and subjected to Q-PCR as previously described.
Human embryonic stem cells were induced to differentiate to definitive endoderm by treatment of undifferentiated hESCs grown on mouse embryonic fibroblast feeders with high dose activin A (50 ng/ml) in low serum/RPMI for 6 days. The FBS dose was 0% on day one, 0.2% on day two and 2% on days 3-6. The negative control for definitive endoderm production (NF) received 2% FBS/RPMI with no added activin A. In order to induce PDX1 expression, each of the cultures received retinoic acid at 2 μM in 2% FBS/RPMI on day 6. The cultures treated with activin A on days one through five were provided with different dosing combinations of activin A and activin B or remained in activin A alone at 50 ng/ml. The no activin A control culture (NF) was provided neither activin A nor activin B. This RA/activin treatment was carried out for 3 days at which time PDX1 gene expression was measured by Q-PCR from duplicate cell samples.
The definitive endoderm cultures generated by 5 days of activin A treatment were then induced to differentiate to PDX1 expressing endoderm by the addition of RA in 2% FBS/RPMI containing activin A at 25 ng/ml for four days. The RA was 2 μM for the first two days of addition, 1 μM on the third day and 0.5 μM on the fourth day. This base medium for PDX1 induction was provided fresh (2A25R) or after conditioning for 24 hours by one of four different cell populations. Conditioned media (CM) were generated from either mouse embryonic fibroblasts (MEFCM) or from hESCs that were first differentiated for 5 days by one of three conditions; i) 3% FBS/RPMI (CM2), or ii) activin A (CM3) or iii) bone morphogenic protein 4 (BMP4) (CM4). […]

[2] = test system: definitive endoderm cells; experiment: Maintenance and expansion of definitive endoderm cells in culture; conditions: in the presence of activin
From the text: Definitive endoderm cells produced by methods described herein have been maintained and expanded in culture in the presence of activin for greater than 50 days without appreciable differentiation. In such cases, SOX17, CXCR4, MIXL1, GATA4, HNF3β expression is maintained over the culture period. Additionally, TM, SPARC, OCT4, AFP, SOX7, ZIC1 and BRACH were not detected in these cultures. It is likely that such cells can be maintained and expanded in culture for substantially longer than 50 days without appreciable differentiation.

[3] = test system: definitive endoderm; experiment: Dorsal / ventral / PDX1-negative foregut endoderm differentiation from definitive endoderm (marker gene expression); conditions: for specification of definitive endoderm into foregut endoderm: FGF10 5-500 ng/ml, KAAD-cyclopamine 0.1-2 μM
Procedure: Definitive endoderm was produced from undifferentiated hESCs using a three or five day protocol in which activin A was provided to the culture medium at a concentration of 100 ng/ml each day. For both dorsal and ventral differentiation, the medium composition for the first five days was as follows: Day 1—RPMI+0% fetal bovine serum (FBS), Day 2—RPMI+0.2% PBS, Day 3—RPMI+2.0% FBS, Day 4—RPMI+2.0% FBS and Day 5—RPMI+2.0% FBS. For the ventral differentiation, definitive endoderm was produced for 3 days in activin A at 100 ng/ml and then exposed to BMP4 at 3 ng/ml and FGF10 at 50 ng/ml. […] For the dorsal differentiation procedure, definitive endoderm was produced for 5 days in activin A at 100 ng/ml and then exposed to retinoic acid (RA) at 2 μM and activin A at 25 ng/ml in CMRL medium containing B27 supplement (1:200).
Four separate conditions were used to treat hESCs that result in varying proportions of differentiation to definitive endoderm. All four conditions utilized RPMI supplemented with 0% FBS on the first day, 0.2% FBS on second day, and 2% FBS on days 3 and 4. The four conditions were as follows: (a) BMP4 at 100 ng/mL with SU5402 at 5 μM; (b) no exogenous growth factors; (c) activin A at 15 ng/mL; and (d) activin A at 100 ng/ml. […] All cultures were then incubated for 2 days with BMP4 at 3 ng/mL, FGF10 at 50 ng/ml and KAAD-cyclopamine at 0.5 μM in a base medium of 2% FBS in RPMI followed by 6 days with BMP4 at 3 ng/mL, FGF10 at 50 ng/ml and KAAD-cyclopamine at 0.5 μM in a base medium composed of CMRL with 1:200 dilution of B27 extract.
Definitive endoderm was produced by exposing undifferentiated hESCs to activin at 100 ng/mL in RPMI base medium supplemented with 0%, 0.2%, and 2% FBS on days 1 through 3, respectively. After 3 days of activin A treatment, the cultures were switched to a base medium composed of RPMI containing 2% FBS and maintained under one of the following conditions: (a) BMP4 at 3 ng/ml with FGF10 at 50 ng/ml and KAAD-cyclopamine at 0.5 μM; (b) FGF10 at 50 ng/ml and KAAD-cyclopamine at 0.5 μM; or (c-e) no exogenous factors. After two days, the base medium was changed to CMRL plus B27 supplement (1:200) and cells were maintained according to conditions (a-c) above. Alternatively, cells were maintained with no exogenous factors in RPMI with B27 supplement (1:200) (condition (d)) or RPMI with 2% FBS (condition (e)). The same factor treatment conditions were maintained for 8 more days of differentiation.
Human embryonic stem cells were differentiated for 7 days via a 2-step protocol to achieve PDX1 cells. The first step comprised 5 days differentiation in activin A (100 ng/ml) to robustly produce DE (D'Amour, K., et al., Nature Biotechnology 23, 1534-1541, (2005)). […]

[4] = test system: SOX17 gene expression; experiment: Q-PCR of SOX17 gene expression in differentiating hESCs; conditions: added to activin A and activin B treated cultures (FIG. 23)
Procedure: In the following experiments, real-time quantitative RT-PCR (Q-PCR) was the primary assay used for screening the effects of various treatments on hESC differentiation. In particular, real-time measurements of gene expression were analyzed for multiple marker genes at multiple time points by Q-PCR. Marker genes characteristic of the desired as well as undesired cell types were evaluated to gain a better understanding of the overall dynamics of the cellular populations. The strength of Q-PCR analysis includes its extreme sensitivity and relative ease of developing the necessary markers, as the genome sequence is readily available. Furthermore, the extremely high sensitivity of Q-PCR permits detection of gene expression from a relatively small number of cells within a much larger population. In addition, the ability to detect very low levels of gene expression provides indications for “differentiation bias” within the population. The bias towards a particular differentiation pathway, prior to the overt differentiation of those cellular phenotypes, is unrecognizable using immunocytochemical techniques. […] Additionally, Q-PCR provides a mechanism by which to evaluate the success of a differentiation protocol in a quantitative format at semi-high throughput scales of analysis.
The approach taken here was to perform relative quantitation using SYBR Green chemistry on a Rotor Gene 3000 instrument (Corbett Research) and a two-step RT-PCR format. Such an approach allowed for the banking of cDNA samples for analysis of additional marker genes in the future, thus avoiding variability in the reverse transcription efficiency between samples.
To generate PCR template, total RNA was isolated using RNeasy (Qiagen) and quantitated using RiboGreen (Molecular Probes). Reverse transcription from 350-500 ng of total RNA was carried out using the iScript reverse transcriptase kit (BioRad), which contains a mix of oligo-dT and random primers. Each 20 μL reaction was subsequently diluted up to 100 μL total volume and 3 μL was used in each 10 μL Q-PCR reaction containing 400 nM forward and reverse primers and 5 μL 2×SYBR Green master mix (Qiagen). Two step cycling parameters were used employing a 5 second denature at 85-94° C. (specifically selected according to the melting temp of the amplicon for each primer set) followed by a 45 second anneal/extend at 60° C. Fluorescence data was collected during the last 15 seconds of each extension phase. A three point, 10-fold dilution series was used to generate the standard curve for each run and cycle thresholds (Ct's) were converted to quantitative values based on this standard curve. The quantitated values for each sample were normalized to housekeeping gene performance and then average and standard deviations were calculated for triplicate samples. At the conclusion of PCR cycling, a melt curve analysis was performed to ascertain the specificity of the reaction. A single specific product was indicated by a single peak at the Tm appropriate for that PCR amplicon.
A first step in establishing the Q-PCR methodology was validation of appropriate housekeeping genes (HGs) in the experimental system. […] We measured the expression levels of Cyclophilin G, hypoxanthine phosphoribosyltransferase 1 (HPRT), beta-2-microglobulin, hydroxymethylbiane synthase (HMBS), TATA-binding protein (TBP), and glucoronidase beta (GUS) in differentiating hESCs. […] We routinely used both Cyclophilin G and GUS to calculate a normalization factor for all samples. The use of multiple HGs simultaneously reduces the variability inherent to the normalization process and increases the reliability of the relative gene expression values.
We were the first to analyze and describe the effect of TGFβ family growth factors, such as Nodal/activin/BMP, for use in creating definitive endoderm cells from embryonic stem cells in in vitro cell cultures. […]

[5] = test system: definitive endoderm cells; experiment: Q-PCR of marker genes other than PDX1 in hESC-derived definitive endoderm cultures; conditions: FIG. 40B
Procedure: as §1, §2
Human embryonic stem cells were cultured with or without activins for four days. […] The expression of the PDX1 marker gene as well as other markers not specific for foregut endoderm were quantitated by Q-PCR.
Human embryonic stem cells were induced to differentiate to definitive endoderm by treatment of undifferentiated hESCs grown on mouse embryonic fibroblast feeders with high dose activin A (50 ng/ml) in low serum/RPMI for 6 days. […] The no activin A control culture (NF) was provided neither activin A nor activin B. This RA/activin treatment was carried out for 3 days at which time PDX1 gene expression was measured by Q-PCR from duplicate cell samples. […]

Molecule: activin
- PDX1 expression in activin treated cell cultures relative to cultures that received no activin prior to RA application ([1]; four days with or without activins, then 1 μM RA and 50 ng/ml FGF-10 for 48 hours): 160 fold
- time definitive endoderm cells were maintained and expanded in culture without appreciable differentiation [2]: greater than 50 days

Molecule: CC1=C(/C=C/C(C)=C/C=C/C(C)=C/C(=O)O)C(C)(C)CCC1 [retinoic acid, reference compound]
- increase in PDX1 gene expression ([1]; activin for four days followed by 1 μM RA, ninety six hours): 60 fold

Molecule: CC1=C2C[C@H]3[C@@H](CC=C4CC(=O)CC[C@@]43C)[C@@H]2CC[C@]12O[C@@H]1C[C@H](C)CN(CCNC(=O)CCCCCNC(=O)CCc3ccccc3)[C@H]1[C@H]2C [KAAD-cyclopamine, reference compound]
- specification of definitive endoderm into foregut endoderm [3]: further specified definitive endoderm cells into the foregut endoderm domain

B1: FGF-10 (protein, UniProt O15520 38-208, looked up)
Fibroblast growth factor 10: QALGQDMVSPEATNSSSSSFSSPSSAGRHVRSYNHLQGDVRWRKLFSFTKYFLKIEKNGKVSGTKKENCPYSILEITSVEIGVVAVKAINSNYYLAMNKKGKLYGSKEFNNDCKLKERIEENGYNTYASFNWQHNGRQMYVALNGKGAPRRGQKTRRKNTSAHFLPMVVHS
notes: fibroblast growth factor
- PDX1 induction over RA alone [1]: 60 fold
- specification of definitive endoderm into foregut endoderm [3]: beneficial

B2: BMP4 (protein, UniProt P12644 293-408, looked up)
Bone morphogenetic protein 4: SPKHHSQRARKKNKNCRRHSLYVDFSDVGWNDWIVAPPGYQAFYCHGDCPFPLADHLNSTNHAIVQTLVNSVNSSIPKACCVPTELSAISMLYLDEYDKVVLKNYQEMVVEGCGCR
notes: bone morphogenic protein 4, member of the TGFβ family
- production of PDX1-positive ventral foregut endoderm ([3]; after 3 days activin 100 ng/mL, FGF10 50 ng/ml, KAAD-cyclopamine 0.5 μM, BMP4 3 ng/ml (FIGS. 52A, 52B)): not needed

B3: FGF-4 (protein, UniProt P08620 31-206, looked up)
Fibroblast growth factor 4: APTAPNGTLEAELERRWESLVALSLARLPVAAQPKEAAVQSGAGDYLLGIKRLRRLYCNVGIGFHLQALPDGRIGGAHADTRDSLLELSPVERGVVSIFGVASRFFVAMSSKGKLYGSPFFTDECTFKEILLPNNYNAYESYKYPGMFIALSKNGKTKKGNRVSPTMKVTHFLPRL
notes: fibroblast growth factor
- PDX1 induction over RA alone [1]: approximately 3 fold

B4: Wnt3a (protein, UniProt P56704 19-352, looked up)
Protein Wnt-3a: SYPIWWSLAVGPQYSSLGSQPILCASIPGLVPKQLRFCRNYVEIMPSVAEGIKIGIQECQHQFRGRRWNCTTVHDSLAIFGPVLDKATRESAFVHAIASAGVAFAVTRSCAEGTAAICGCSSRHQGSPGKGWKWGGCSEDIEFGGMVSREFADARENRPDARSAMNRHNNEAGRQAIASHMHLKCKCHGLSGSCEVKTCWWSQPDFRAIGDFLKDKYDSASEMVVEKHRESRGWVETLRPRYTYFKVPTERDLVYYEASPNFCEPNPETGSFGTRDRTCNVSSHGIDGCDLLCCGRGHNARAERRREKCRCVFHWCCYVSCQECTRVYDVHTCK
notes: Wnt family growth factor
- SOX17 expression relative to activin A and activin B alone [4]: increases SOX17 expression

B5: activin B (protein, UniProt P09529 293-407, looked up)
Inhibin beta B chain: GLECDGRTNLCCRQQFFIDFRLIGWNDWIIAPTGYYGNYCEGSCPAYLAGVPGSASSFHTAVVNQYRMRGLNPGTVNSCCIPTKLSTMSMLYFDDEYNIVKRDVPNMIVEECGCA
modifications: Inhibin beta B chain
- increase in PDX1 expression over the culture that received only activin A at 50 ng/ml ([1]; activin B 10-50 ng/ml with 25 or 50 ng/ml activin A and 2 μM RA, 3 days (FIG. 40A)): at least 2 fold
- HNF6 expression [5]: without increase in HNF6 expression
